Results reported in the supplement of paper PMC9170038.

Test system: MS2 coat protein
Assay: apparent KD of MS2 coat protein; designed switch direction (-1 OFF switch, 1 ON switch): -1; higher = weaker reporter binding
Summary of the method: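 Designed RNA switches with common flanks were transcribed on Illumina chips by stalled E. coli RNA polymerase and titrated with SNAP-549-labelled MS2 coat protein, from 0.7 or 1.5 nM doubling to 3 µM, in Tris-HCl pH 7.5 buffer with KCl, MgCl2, BSA, DTT, tRNA and Tween-20. Steps lasted 0.8–1.5 h (lowest) to 10–20 min (highest). Titrations ran without input, with 200 uM small-molecule ligand, or with an oligonucleotide input. Normalised cluster fluorescence was curve-fitted, and apparent KD is the per-design median over clusters.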

[1] = Eterna round: R95, input ligand: microRNA oligo, concentration not stated
[2] = input ligand: microRNA oligo, concentration not stated
[3] = Eterna round: R95, input ligand: FMN 200 uM
[4] = Eterna round: R95, input ligand: none

Sequence	apparent KD of MS2 coat protein (input ligand: FMN 200 uM) [nM]	apparent KD of MS2 coat protein (input ligand: none) [nM]	apparent KD of MS2 coat protein [1] [nM]	apparent KD of MS2 coat protein [2] [nM]	apparent KD of MS2 coat protein [3] [nM]	apparent KD of MS2 coat protein [4] [nM]
UCUUAGUCAGGAUAUACAUGAGGAUCACCCAUGUAAAAUUUUAAUUUAAUUUUAAGGUGUAGAAGGGACCACCU [Ex3 #18] (Eterna round: R97, puzzle: Exclusion 3)	19.2	23.4				
UGCAGACGAGGAUAUAGAUUUGAUAACAUGAGGAUCACCCAUGUGAUCGAUAGAUCAGAUUUAGAAGGUGUCUGCA [E5/8-B2] (Eterna round: R97, puzzle: Exclusion 5)	579	431				
ACCUUACUGGUCAGGAUAUACAGUCUUUGGUGUGUGUAGAAGGGACAUGAGGAUCACCCAUGUAGGUUGUUUUA [alecazam62b] (Eterna round: R97, puzzle: Brourd's mod of Exclusion 4)	237	165				
UUUUAACAUGAGGAUCACCCAUGUGAGGAUAUCGAAAUUUAUAUUAAUAUUAUUAAUUCGAGAAGGCACAUUUU [JMF 37] (puzzle: Exclusion 1)			126			
CAGCUGAAAGUCAGGAUAUCUAGAGCCUCGGCUCUAGAGAAGGGACAUGAGGAUCACCCAUGUGGUCACAGCUG [BmEx4/5-A2] (Eterna round: R97, puzzle: Brourd's mod of Exclusion 4)	93.5	619				
AUAUAGUCAGGAUAUACAUGAGGAUCACCCAUGUGGUAGUAGAUACAGUAGAGAUAGAGUAGAAGGGACGAUGA [EX3 #24] (Eterna round: R97, puzzle: Exclusion 3)	113	31				
UACAUGAGGAUCACCCAUGUUUUGUCGUGUAUGGUAUUUAUCUAGGAUAUCAAUUUAGUUACUUAUGAGAAGGAGAAUAUUAAU [JMF's solution 77] (Eterna round: R96, puzzle: Exclusion NG 3)	33.8	38.7		22.3		
CUGGUCCGAGGAUAUAUUAUGUGAAACAUGAGGAUCACCCAUGUAAUAUGAUGGAUGUAAAUAGAAGGCGGGCUAG [Mat - Exclusion 5 - JL mod - D26] (puzzle: Exclusion 5)			23.2		30.8	24.3
GUUCGACAUGAGGAUCACCCAUGUGAGGAUAUACGAUUAGCUGCUAGGUAGUUAGUAUGUAGAAGGUGCGUGUA [EX1 #71] (Eterna round: R97, puzzle: Exclusion 1)	36	34.3				
CUUAUGUGAGGAUAUCAGUAGUGAUACGAUAGUAUUACUGCUGAGAAGGCACAUGAGGAUCACCCAUGUUCCUU [Exclusion 4 - Mod Omei Ex4 344 mod v.3] (puzzle: Exclusion 4)			21.9			
GCAGCAUAGUCGGAAUACGACAUACAUGAGGAUCACCCAUGUCAGGAUAUGGUCUGGAUUACAGGCCAGAAGGGACAAAGCUGC [Eli exng3 - 007] (Eterna round: R96, puzzle: Exclusion NG 3)	24.8	20.1		17.1		
CUAGUAUAUCAGGAUAUGAUUUUAUAUAUUGGAUCAGAAGGGAUGACAUGAGGAUCACCCAUGUUGAGGAGUGA [JR_Ex6_Sub039] (Eterna round: R97, puzzle: Exclusion 6)	257	103				
GCUAAACAUGUAGGAUAUGCGUGGCGAAGCUAUGCAGAAGGACAUGAGGAUCACCCAUGUUUUAGCGUCUGCGUACAGAUGCGU [JL ENG1 1.43] (Eterna round: R96, puzzle: Exclusion NG 1)	318	31.6		28		
GCGGAGUCAGGAUAUUGAAUUUAACGUACCAAUUAGGUACGCGAGAAGGGACAUGAGGAUCACCCAUGUACCGC [Eli x4 4.03] (Eterna round: R97, puzzle: Exclusion 4)	11.4	15.9				
UGAUCUAGCGGAGGAUAUACAUGAGGAUCACCCAUGUAGACUCUAUGACCGUAGUCGUGGAGAGUGUAGAAGGCCGCUAGAUCU [JL ENG2 3.75] (Eterna round: R96, puzzle: Exclusion NG 2)	16.6	13.1		8.79		
GGGUGACAUGAGGAUCACCCAUGUCAGGAUAUGAUACUAUGUACUUCGGUACAUAGUAUCAGAAGGGACAUCAU [Ex1-3: 14] (Eterna round: R96, puzzle: Exclusion 1)	112	424		253		
AAAAGGUGAGGAUAUCCGACGUUGCACUUGAGGAUCACCCAAGUUCCUCGCGUGCUUUUAGGAGAAGGCACAAAAC [Tegezaza] (Eterna round: R97, puzzle: Exclusion 5)	77.3	982				
CUUUUGUGAGGAUAUUAGUAGUAAAUAAAUAAAAUUACUUCUGAGAAGGCACAUGAGGAUCACCCAUGUUCCUC [salish99_ex4_r3_063] (puzzle: Exclusion 4)			36.9			
AACCUACAUGAGGAUCACCCAUGUGAGGAUAUAUUGUUAUGGAUGUUAUUUUGUAGUGGUAGAAGGCGCGUGAU [JR_Exc1_Sub024] (Eterna round: R97, puzzle: Exclusion 1)	19	15.9				
GUUAUCGCAGGAUAUUAGUACUUGUACAUGAGGAUCACCCAUGUUUAUUGGGUCUAAGAAUAAGAAGGGCGAUGAA [JR_Ex5_Sub005] (Eterna round: R97, puzzle: Exclusion 5)	105	32				
AGCAUGCUAGGAUAUACGAAACAUUAGGGUUCUUUGUAUGAACAUGAGGAUCACCCAUGUAGAAGGAGCGUGCA [Mat - Exclusion 2 - Mod of Hyphema - D96] (puzzle: Exclusion 2)			82.5			
UUUAAUUUUUUUUUUUUACAAGCUUUUUGCUCGUCUUAUACAUGAGGAUCACCCAUGUGGGUGAGGAGUAAAUUAUC [JMF 61] (puzzle: Sensor v3, turn-off variant 2)			19.1		37.9	66.7
AGUACUAUGCGUGCUGACAUGCGUAGUGCAGCAGGUGUAACAUGAGGAUCACCCAUGUCCUCAUUUGCUCGUCUUAA [Mat - Sensor v3 - Turn-off var 2 - D13] (puzzle: Sensor v3, turn-off variant 2)			224		107	129
GAUCAACAUGAGGAUCACCCAUGUUAGGAUAUGUCCACGUGGCAUAGGACCACGUGUGGCAGAAGGAGCGUUAA [Eternabot (L2) Solution 52] (Eterna round: R97, puzzle: Exclusion 1)	37.9	37.4				
AAGAAACAUGAGGAUCACCCAUGUGAGGAUAUGAAAAAUAAAAGAAAAGAAAGAAUAAUCAGAAGGCACAAAGG [Mat - Mod of Hog D10] (puzzle: Exclusion 1)			37.3		51.4	41.4
GGACCUCCUGAGGAUAUUGUAUCACCCGACUGAUAAGAAGGCAGAACAUGAGGAUCACCCAUGUGGGUACUCGG [Bingo-Bango-14] (Eterna round: R97, puzzle: Exclusion 6)	34.6	38.4				
